Positions of bridges follow the written chain, without caps; N, C: chain ends. No end group written: not given here. *: point of attachment. X1 = 3‑(4-hydroxy-3-iodophenyl)propionyl, O=C(CCc1ccc(O)c(I)c1)*
How the values were obtained:
Assay type in all cases: biochemical
human SLC-1 = biological target: T1, human SLC-1 (Homo sapiens, UniProt Q99705); test: Agonist activity of Bolton-Hunter derivatized MCHs by GTPγS binding assay (Example 22); conditions: membrane fraction given as human SLC-1-expression CHO; FIG. 8
T1 construct: expressed in transfected cells; host or cells: CHO dhfr- cells, plasmid pAKK0-hSLC-1(S) or pAKK0-hSLC-1(L)

rat SLC-1 [1] = biological target: T2, rat SLC-1 (Rattus norvegicus, UniProt P97639); test: Inhibition of MCH-induced GTPγS binding by the method of Example 21 (compound plus MCH); conditions: read-out: IC50 calculated from the binding inhibition rate (%)
T2 construct: expressed in transfected cells; host or cells: CHO dhfr- cells, plasmid pAKK0-SLC-1, mainly clone #44
Method: The IC50(nM) of the compound (1) supra
(§1) A rat SLC-1-expression CHO cell membrane fraction was prepared by the following procedure. Rat SLC-1-expression CHO cells (1×10^8 cells) were suspended in phosphate buffered saline (pH 7.4) supplemented with 5 mM EDTA (ethylene diamine tetra acetic acid) followed by centrifugation. after 10 ml of a homogenate buffer (10 mM NaHCO3, 5 mM EDTA, pH 7.5) was added to the cell pellets, the mixture was homogenized with a polytron homogenizer. the homogenate was then centrifuged at 400×g for 15 minutes. the resulting supernatant was further centrifuged at 100,000×g for an hour to give membrane fraction precipitates. the precipitates were suspended in 2 ml of an assay buffer (50 mM Tris-HCl (pH 7.5), 1 mM EDTA, 0.1% BSA (bovine serum albumin), 10 mM MgCl2, 100 mM NaCl, 1 μM GDP (guanosine 5′-diphosphate), 0.25 mM PMSF (phenylmethylsulfonyl fluoride), 1 μg/ml pepstatin, 20 μg/ml leupeptin, 10 μg/ml phosphoramidon). the suspension was centrifuged at 100,000×g for an hour. the cell membrane recovered as precipitates was resuspended in 20 ml of the assay buffer. after dispensing, the suspension was stored at −80° C., which maybe thawed every time upon use.

rat SLC-1 [2] = biological target: T2, rat SLC-1; test: Agonist activity by GTPγS binding assay, rat SLC-1-expression CHO cell membrane fraction (Example 21); conditions: rat SLC-1 membrane, FIG. 7
Method: as §1

T1 sequence (Q99705 with tags, fused parts or gaps): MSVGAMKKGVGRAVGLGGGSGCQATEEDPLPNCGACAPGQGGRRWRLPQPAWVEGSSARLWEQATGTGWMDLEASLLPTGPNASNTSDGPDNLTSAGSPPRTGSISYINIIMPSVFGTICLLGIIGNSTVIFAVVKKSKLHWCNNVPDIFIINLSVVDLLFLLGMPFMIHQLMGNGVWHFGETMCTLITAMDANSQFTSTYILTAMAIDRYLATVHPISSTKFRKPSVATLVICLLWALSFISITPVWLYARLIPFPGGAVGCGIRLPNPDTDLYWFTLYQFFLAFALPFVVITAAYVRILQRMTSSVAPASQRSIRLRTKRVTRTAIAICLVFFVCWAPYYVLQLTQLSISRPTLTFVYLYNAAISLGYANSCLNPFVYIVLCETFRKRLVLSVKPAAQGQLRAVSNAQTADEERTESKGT
T2 sequence (P97639 whole entry): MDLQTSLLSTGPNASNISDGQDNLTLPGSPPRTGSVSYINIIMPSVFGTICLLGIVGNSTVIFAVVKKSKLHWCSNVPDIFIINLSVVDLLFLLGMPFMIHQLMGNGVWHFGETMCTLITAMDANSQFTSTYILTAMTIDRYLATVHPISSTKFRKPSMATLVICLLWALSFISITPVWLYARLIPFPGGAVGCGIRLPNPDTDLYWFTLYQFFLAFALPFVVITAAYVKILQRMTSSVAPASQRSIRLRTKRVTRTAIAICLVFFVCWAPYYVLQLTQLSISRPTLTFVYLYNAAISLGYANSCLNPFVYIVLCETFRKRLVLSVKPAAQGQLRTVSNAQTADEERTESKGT

Compound	amount of [35S]-GTPγS bound (agonist activity), dose dependence (human SLC-1)	agonist activity as compared to that of MCH (rat SLC-1 [2])	also measured
BH-MCH(3-19): MCH(3-19) derivatized with a non-isotope Bolton-Hunter reagent (X1-DMLRCMLGRVYRPCWQV; disulfide 5-14)	increased dose-dependently	–	–
[N-(3-(4-Hydroxy-3-iodophenyl)propionyl)-Met^4]-MCH(4-19) (X1-MLRCMLGRVYRPCWQV; disulfide 4-13) [BH-MCH(4-19)]	increased dose-dependently	–	–
BH-MCH(2-19): MCH(2-19) derivatized with a non-isotope Bolton-Hunter reagent (X1-FDMLRCMLGRVYRPCWQV; disulfide 6-15)	increased dose-dependently	–	–
COc1ccc(-c2ccc(C(=O)Nc3ccc4c(c3)CCC(CN(C)C)C4)cc2)cc1 (stereo not shown) [compound (1), N-[2-(N,N-Dimethylamino)methyl-6-tetralinyl]-(4′-methoxybiphenyl-4-yl)carboxamide]	–	–	IC50 (rat SLC-1 [1]): 40 nM
Phe-Asp-Met-Leu-Arg-Cys-Met-Leu-Gly-Arg-Val-Tyr-Arg-Pro -Cys-Trp-Gln-Val (FDMLRCMLGRVYRPCWQV; disulfide 6-15) [MCH(2-19)]	–	almost the same agonist activity	–
Leu-Arg-Cys-Met-Leu-Gly-Arg-Val-Tyr-Arg-Pro-Cys-Trp-Gln -Val-OH (LRCMLGRVYRPCWQV-OH; disulfide 3-12; N-terminus assumed; SMILES CSCC[C@@H]1NC(=O)[C@@H](NC(=O)[C@H](CCCNC(=N)N)NC(=O)[C@@H](N)CC(C)C)CSSC[C@@H](C(=O)N[C@@H](Cc2c[nH]c3ccccc23)C(=O)N[C@@H](CCC(N)=O)C(=O)N[C@H](C(=O)O)C(C)C)NC(=O)[C@@H]2CCCN2C(=O)[C@H](CCCNC(=N)N)NC(=O)[C@H](Cc2ccc(O)cc2)NC(=O)[C@H](C(C)C)NC(=O)[C@H](CCCNC(=N)N)NC(=O)CNC(=O)[C@H](CC(C)C)NC1=O) [MCH(5-19)]	–	almost the same agonist activity	–
Asp-Met-Leu-Arg-Cys-Met-Leu-Gly-Arg-Val-Tyr-Arg-Pro-Cys -Trp-Gln-Val (DMLRCMLGRVYRPCWQV; disulfide 5-14) [MCH(3-19)]	–	almost the same agonist activity	–
BH-MCH(5-19): MCH(5-19) derivatized with a non-isotope Bolton-Hunter reagent (X1-LRCMLGRVYRPCWQV; disulfide 3-12)	increased dose-dependently	–	–
Des-[Asp^1, Phe^2, Asp^3, Met, Leu^5]-MCH (RCMLGRVYRPCWQV; disulfide 2-11) [MCH(6-19)]	–	–	decrease of agonist activity as compared to that of MCH (rat SLC-1 [2]): approximately 10 times
Met-Leu-Arg-Cys-Met-Leu-Gly-Arg-Val-Tyr-Arg-Pro-Cys-Trp -Gln-Val (MLRCMLGRVYRPCWQV; disulfide 4-13) [MCH(4-19)]	–	almost the same agonist activity	–
